assay: soluble on expression in E. coli; label from the status in PepcDB or PDB records

Which “soluble on expression in E. coli” value does the source give for “MHTNMWVVDNVVERKKYYPQLQEAAKLLRENEAIAFPTETVYGLGANAMNDEAIAKIFEAKGRPSDNPLIVHIGTKSQLDGIVKEIPPVAEKLMEHFWPGPLTIILPRKEGISEKVTAGLHTVGVRMPDHPVALALIEEANVPVAAPSANRSGRPSPTLASHVYEDLNEKIAGIVDGGATGVGVESTVIDCTSAVPTILRPGGITKEQLEAVIGTVSLDPALKDEKEKPKSPGMKYTHYAPKAPLSIVEGSREFIQRLVDEKKEEGFKVGVLTTEEYHHIYNADVVLSCGVRSDLASVATKLYDVLRTFDASEVDVIFSESFPNEGIGNAIMNRLTKAAGHHIITE” here?
Its value is “not soluble”.

For “MHVLTLDLAPVTPKDAPLLHRVFHLSPSYFALIGMELPTLEDVVRDLQTLEVDPRRRAFLLFLGQEPVGYLDAKLGYPEAEDATLSLLLIREDHQGRGLGRQALERFAAGLDGVRRLYAVVYGHNPKAKAFFQAQGFRYVK”, which “soluble on expression in E. coli” value is on record?
Its value is “not soluble”.

With “MIAILTDKPNVGKEIARILGAHTREDGYMSGNGYMVTWTFGNMLSLAMPKDYGMDRPERGDFPINPAPFRLMVKHIKTDTGWIPDINAVLQLKVIEKVFDACESIIAATDASREGEMVFRYLYRYLECRKSYRRLWISSLTDEAVLEGMDNLRPGSLYDHMFLAADSRNKADWVLGLNASYALCQATGTGNNSLGRVQTPILAAISSRYRERENHIATDTFPVFISLCKNNTLLKMRCTEEFTDREAAARLYSDCKLAGHARVTAVSRQVREIEPPALYNLTELQKDANNYYGMTAGKSLEIAQKLYEKKLISYPRTAGRFLPRDVYDKLPRIMEKILNRKEFRPYVRSMGINIFDLPDKVVDEGQAAEHHAIIITDTYPEGLNREEMQLYMMIIGRMLEAFMPVCRAEYTTVDAVCAARNFRCHACRIIEKGWFGIFERESVIAGREYGFSPIPQLENGETAAVTGCSLIHRKDLTVSAYTDAELITYMDTAGLGTAATRTGILQTLIDRKYVRYSGKYIIPTRKGLYIYETVRNMKIAETALTSGWEAQLARMERGKLTQEEFMKGVLKLSREVTEDIFRKCER” as the sequence, how does the “soluble on expression in E. coli” value read?
Its value is “not soluble”.

With “MIALDQHLTEHKKDITQQWLEVCTSNGSWLYSAKDQQKLGQKLKDQHELLVTIVAKSLRKEDVEDELNRWSLQCARDRAVHEVTVTQSFGQFNTFRHIMFEWIHKFSEASSQDISIQEFYEWSRILNQNIDEIIEVFTEEYHQVTMIQLNAQKEMINELSAPIMPITDGIGILPLVGEIDTHRARTILESVLEQCSALKLSYLFLDISGVPIVDTMVAYQIFKVIDSTKLLGIETIISGIRPEIAQTVVKLGLDFSNVKTEQSLAKALANKGFKIKEC” as the sequence, how does the “soluble on expression in E. coli” value read?
Its value is “not soluble”.

With “MIALKMFYTEETYEQFFDYGLDYVIDASDTICYKIHLMKECLKRDIPLISSMGAANKTDPTRFQIADISKTHTDPIAKVVRTKLRKEGIKKGVQVIFSDESPIVIREDVRKEVGNDEAKIRKAKMPPSSNAFVPSVAGLIMGGHVVMDLLKDIEIKRVKDK” as the sequence, how does the “soluble on expression in E. coli” value read?
Its value is “not soluble”.

With “MIANHVSLLIMGIDENQERQKEYNGAFHTDALLLATFNKDDKTVKLTSIPRDTYTYVPVEKKTDNITHAYGSGIVNNGKDGGPQASVEAVEQLLQVPVDYFVKFNFGSFTKIVDGLDGIEVDVPVEFTEQNSKDEPDAIHLKKGLQKLNGEEALALARTRHIDSDAMRGQRQQLVIESILSKLKSVGSITKLEKIVEAVDDDFKTNLVMDDILSFYKYGLNGSVEKIQLAGDDLYLPNGPNGQRVYYYNPNKKDLQSLSNTLRTHLGLSEKQIEENLEHHHHHH” as the sequence, how does the “soluble on expression in E. coli” value read?
Its value is “soluble”.

For “MIATTSQQSFNLLRTLAVQKASDFADEFYIYMLKDQEASLFLSSQQVHDRLHGSMSKWIADILTNTGDSLADLINHQKKIGQIHARIGIPVDLVERGARRLKWHLYEHIAQVADDKALCFDAMRFASISMDIAIEIMSKTYSQSHDLEHHHHHH”, which “soluble on expression in E. coli” value is on record?
The value was “not soluble”.

For “MICYEYINDYIRKTIKKNEGFLAELEEFAKENHVPIVHPEVASLLRVIGLTLRPSRVLEVGTAIGYSAILFSTFLEPGGRIDTIDRYELMLEKARANVKKAGLQDVINIIEGDALEVLKCLEHKYDMIFLDAAKGQYPEFLPECLRLLRSGGLLISDNILYKGMVAKDELVVRRKKTIVKRLRNYLETICNTDELETSILPVGDGLAISFKK”, which “soluble on expression in E. coli” value is on record?
Its value is “not soluble”.

For “MIDSANRADVFLRKPAPVAPELQHEVEQFYYWEAKLLNDRRFEEWFALLAEDIHYFMPIRTTRIMRDSRLEYSGSREYAHFDDDATMMKGRLRKITSDVSWSENPASRTRHLVSNVMIVGAEAEGEYEISSAFIVYRNRLERQLDIFAGERRDTLRRNTSEAGFEIVNRTILIDQSTILANNLSFFF”, which “soluble on expression in E. coli” value is on record?
Its value is “soluble”.

For “MIEFDNLTYLHGKPQGTGLLKANPEDFVVVEDLGFEPDGEGEHILVRILKNGCNTRFVADALAKFLKIHSREVSFAGQKDKHAVTEQWLCARVPGKEMPDLSAFQLEGCQVLEYARHKRKLRLGALKGNAFTLVLREVSNRDDVEQRLIDICVKGVPNYFGAQRFGIGGSNLQGALRWAQTNTPVRDRNKRSFWLSAARSALFNQIVAERLKKADVNQVVDGDALQLAGRGSWFVATTEELAELQRRVNDKELMITAALPGSGEWGTQREALAFEQAAVAAETELQALLVREKVEAARRAMLLYPQQLSWNWWDDVTVEIRFWLPAGSFATSVVRELINTTGDYAHIAELEHHHHHH”, which “soluble on expression in E. coli” value is on record?
The value was “soluble”.

For “MIFCTVGSGIEGYEQSFSKISVEGYDTSVHEFPLKLALAKHFASCGKIVDIDVPRDFKKRILKSPLFIIFHAKEGESPVDKALELSGTDVGGWNVVVKSLPGQQMYRDPGGVDRFKGERTLIVKVYDTPSTLSKIDLQIGLCKHFSSCGEVTGISVLVHGNLCCHESKARVDIMGKGCVDKALELSGRTADGWKIVVYFVVPPAGRKLKPTGSGHPTIGVERMKKAELKKKAKMEMMDKGKKKRKTTE”, which “soluble on expression in E. coli” value is on record?
The value was “not soluble”.

With “MIFEMMGEKFDKNAPIAMQSDVFPRFIINCRDGRTIFKENDTLEFELIIFDNLTELFIQYIYVFETIGQSGLGPEKARYELLSVSDGKGNIIYKNTLLTGNAPVSDIREYISSRLDYCLNNRKNISRMTLLSSVMLNSDCKNGNKKVFFFSAEAFSYSIRERLSRLNVLEKEDEEKLNELLSDKRIINGINMKLTKIDYYIQNEQKTVTFPRFKGYIVFDIERINSYLDYFFACEKLCIGQNILLGFGRYVMG” as the sequence, how does the “soluble on expression in E. coli” value read?
Its value is “not soluble”.

With “MIFENRLALSAMAGVNNAEFCRKQKASLVILGGFNADRRALEAAEKAVKRGRKEFLFGIDGIEGEIKKLGRRKFAVNVRSSSLEGYLNVAELVAEFEGIIEINAHCRQPEFVEIGCGEWLLFNHERLVEIVSKTSRIAPTFVKIRGGHKLDYEKIARKLFDAGCLAIHVDAMIPGGGCDFSLIERISRIGNVIGNNSFVDIESGERIIMAGAKMASAARAVLRDENFFEKMLRSPLLSQPVELSCGRFR” as the sequence, how does the “soluble on expression in E. coli” value read?
Its value is “not soluble”.

For “MIFERIKSEGLAHLSYFVGSGNEAIVIDPRRDCQIYFDIARREGMKIKYIFETHRNEDYVIGSLELKELTDAEIYHGKGVDFKYGIFVSDGQEFNFGSMKLTALHTPGHTDESMSYALTYPESGKAPLMVFTGDALFVGDVGRTDLYGPEEIPRMAANLYESIFNKILPLGDGVILCPAHGAGSLCGGAISKREYSTLGLERIQNPALQRTDKEEFIKFKLEEKLEFPPYFKKMEQYNLQGPPLLKGLPVPELLFPKEFVKEMEKGAMVVDTRMPHSFGGAHIKGSYGIWLKGLPYYAGWVLPYDKPILLVLEEKDQLETAVSYLVRIGYDSIAGFLNGGISSWYMKALPVESLNLISVQSLKDKIEKNEEMVILDVRRDEEWEKGHIEGARHVYVGHLEENLDKVPRNSPIIVYCDSSRRSNIAASILKKKGYDMVYNVLGSMTAWKNAGYKVVKLEHHHHHH”, which “soluble on expression in E. coli” value is on record?
Its value is “soluble”.

For “MIFNIQRYSTHDGPGIRTVVFLKGCSLGCRWCQNPESRARSEDLLYDSRLCLAGCELCQQAAPAVITRTLDGLIIHRQNVNDSHIAALRDCCPTTALTVCGEEKSVEEIMATVLRDKPFYDRSGGGITLSGGEPFMNPTLAQALFEASHQAGIHTAVETCLHVPWKYIEPSLPFVDLFLADLKHVDEAVFQQWTDGSARRVLDNLQRLAQAGKKMIIRVPLIQGFNASEADIAAITDFAADRLQVSEIHYLPYHTLGMNKYQLLSQPYTAPDKPLDAPELLVFAQDYAQSKGLTAILRG”, which “soluble on expression in E. coli” value is on record?
Its value is “not soluble”.

— the DeepSol protein solubility set
